Experimental data taken from PMC4932452.

Target: heat shock protein 70 (UniProt P0DMV8)
Assay: co-immunoprecipitation (anti-Flag beads) and western blot, band densitometry
Details: beads incubated with celastrol for 10 min, room temperature; n = 3; parent: est. 0.73; read off a plot

Chain of UniProt P0DMV8 (P0DMV8 whole entry): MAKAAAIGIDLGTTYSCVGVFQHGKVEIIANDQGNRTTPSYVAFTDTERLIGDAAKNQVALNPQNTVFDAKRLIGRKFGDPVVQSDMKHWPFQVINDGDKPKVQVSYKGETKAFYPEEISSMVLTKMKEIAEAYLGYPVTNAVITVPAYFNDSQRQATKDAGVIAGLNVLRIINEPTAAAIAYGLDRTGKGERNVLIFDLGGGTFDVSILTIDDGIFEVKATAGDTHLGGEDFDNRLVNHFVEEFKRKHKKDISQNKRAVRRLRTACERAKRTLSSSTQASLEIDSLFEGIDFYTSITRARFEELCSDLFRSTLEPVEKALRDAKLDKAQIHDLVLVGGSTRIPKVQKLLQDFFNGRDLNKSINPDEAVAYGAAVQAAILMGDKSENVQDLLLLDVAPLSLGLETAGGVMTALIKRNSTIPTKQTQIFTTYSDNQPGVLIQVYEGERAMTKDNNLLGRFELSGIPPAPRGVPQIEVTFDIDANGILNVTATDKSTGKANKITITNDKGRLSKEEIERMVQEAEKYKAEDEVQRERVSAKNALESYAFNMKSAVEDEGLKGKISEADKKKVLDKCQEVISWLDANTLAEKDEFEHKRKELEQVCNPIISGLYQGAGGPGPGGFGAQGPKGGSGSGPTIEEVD

Substance: wild-type human HSP90α (Flag-tagged, from pCMV-tag2a) (from UniProt P07900-1) Y493G; K546D
- other: band density of cell-free experiment (ratios to HSP90α), DMSO group set as 1.0: 1.3
